Measured values: article PMC7954794, “Protein context shapes the specificity of SH3 domain-mediated interactions in vivo” (Nature Communications, 2021)

B1: PIN3 (protein, UniProt Q06449 2-215, looked up)
[PSI+] inducibility protein 3: SASLINRSLTNIRTELDFLKGSNVISNDVYDQINKSLPAKWDPANAPRNASPASLEYVEALYQFDPQQDGDLGLKPGDKVQLLEKLSPEWYKGSCNGRTGIFPANYVKPAFSGSNGPSNLPPPPQYKAQELQQIPTQNSAASSYQQQPFPPPSTNYYQQPQQQPQQAPPPQQQQQQQQHQSSHSHLKSFGSKLGNAAIFGAGASIGSDIVNNIF
B2: BOI1 (protein, UniProt P38041 1-980, looked up)
BEM1-interacting protein 1: MSLEGNTLGKGAKSFPLYIAVNQYSKRMEDELNMKPGDKIKVITDDGEYNDGWYYGRNLRTKEEGLYPAVFTKRIAIEKPENLHKSPTQESGNSGVKYGNLNDSASNIGKVSSHQQENRYTSLKSTMSDIDKALEELRSGSVEQEVSKSPTRVPEVSTPQLQDEQTLIQEKTRNEENTTHDSLFSSTADLNLSSESLKNISKSNISTKSLEPSSESVRQLDLKMAKSWSPEEVTDYFSLVGFDQSTCNKFKEHQVSGKILLELELEHLKELEINSFGIRFQIFKEIRNIKSAIDSSSNKLDADYSTFAFENQAAQLMPAATVNRDEIQQQISSKCNKLSSESSDRKSSSVTTELQRPSSVVVNPNFKLHDPAEQILDMTEVPNLFADKDIFESPGRAPKPPSYPSPVQPPQSPSFNNRYTNNNARFPPQTTYPPKNKNPTVYSNGLIPNSSTSSDNSTGKFKFPAMNGHDSNSRKTTLTSATIPSINTVNTDESLPAISNISSNATSHHPNRNSVVYNNHKRTESGSSFVDLFNRISMLSPVKSSFDEEETKQPSKASRAVFDSARRKSSYGHSRDASLSEMKKHRRNSSILSFFSSKSQSNPTSPTKQTFTIDPAKMTSHSRSQSNSYSHARSQSYSHSRKHSLVTSPLKTSLSPINSKSNIALAHSETPTSSNNKEAVSQPSEGKHKHKHKHKSKHKHKNSSSKDGSSEEKSKKKLFSSTKESFVGSKEFKRSPSELTQKSTKSILPRSNAKKQQTSAFTEGIRSITAKESMQTADCSGWMSKKGTGAMGTWKQRFFTLHGTRLSYFTNTNDEKERGLIDITAHRVLPASDDDRLISLYAASLGKGKYCFKLVPPQPGSKKGLTFTEPRVHYFAVENKSEMKAWLSAIIKATIDIDTSVPVISSYATPTIPLSKAQTLLEEARLQTQLRDAEEEEGRDQFGWDDTQNKRNSNYPIEQDQFETSDYLESSAFEYPGGRL
B3: SHO1 (protein, UniProt P40073 1-367, looked up)
High osmolarity signaling …: MSISSKIRPTPRKPSRMATDHSFKMKKFYADPFAISSISLAIVSWVIAIGGSISSASTNESFPRFTWWGIVYQFLIICSLMLFYCFDLVDHYRIFITTSIAVAFVYNTNSATNLVYADGPKKAAASAGVILLSIINLIWILYYGGDNASPTNRWIDSFSIKGIRPSPLENSLHRARRRGNRNTTPYQNNVYNDAIRDSGYATQFDGYPQQQPSHTNYVSSTALAGFENTQPNTSEAVNLHLNTLQQRINSASNAKETNDNSNNQTNTNIGNTFDTDFSNGNTETTMGDTLGLYSDIGDDNFIYKAKALYPYDADDDDAYEISFEQNEILQVSDIEGRWWKARRANGETGIIPSNYVQLIDGPEEMHR
B4: PEX13 (protein, UniProt P80667 1-386, looked up)
Peroxisomal membrane protein …: MSSTAVPRPKPWETSASLEEPQRNAQSLSAMMTSNQQDSRPTEESNNSNSASESAPEVLPRPAALNSSGTYGESNTIPGIYGNSNYGIPYDNNPYSMNSIYGNSIGRYGYGGSYYGNNYGSFYGGGYGAGAGYGMNNGSGLGESTKATFQLIESLIGAVTGFAQMLESTYMATHNSFFTMISVAEQFGNLKEMLGSFFGIFAIMKFLKKILYRATKGRLGIPPKNFAESEGSKNKLIEDFQKFNDSGTINSNEKATRRKISWKPLLFFLMAVFGFPYLLNKFITKLQTSGTIRASQGNGSEPIDPSKLEFARALYDFVPENPEMEVALKKGDLMAILSKKDPLGRDSDWWKVRTKNGNIGYIPYNYIEIIKRRKKIEHVDDETRTH

system: 575 putative partners (preys) of 22 WT SH3-containing proteins; assay: DHFR-PCA on solid medium, WT and SH3-deleted baits (Fig. 1B); format: cell-based, Saccharomyces cerevisiae; details: number of PPIs; SH3 domain in its own protein; DHFR-PCA; Fig2D,S2F
Summary of the method: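 In S. cerevisiae, 22 SH3-containing baits fused genomically to DHFR F[1,2], either WT or with each SH3 replaced via CRISPR by a poly-Gly/Ser linker, screened against 575 DHFR F[3] preys plus 40 negative controls in 1536 arrays, preys duplicated at randomized positions.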

Going from B1 to B2, the “SH3-dependent PPIs” value falls from 13 to 3.

First: B3
Second: B4
The “SH3-dependent PPIs” value of the first is higher: 2 for the first, 1 for the second.
